# From paper PMC7153820 (Oncoimmunology, 2020)
# B1: M6903, fully human anti-TIM-3 monoclonal IgG2 antibody (antibody, V domains shown)
# VH: not shown
# VL: QSALTQPRSVSGSPGQSVTISCTGTSSDVGGYNYVSWYQQHPGKAPKLMIYDVSKRPSGVPDRFSGSKSGNTASLTISGLQAEDEADYYCSSYADSVVFGGGTKVTVL
# Experiments:
# [1] = molecular target: rhTIM-3-Fc AF647 (R&D Systems 2365-TM) (Homo sapiens (Human)., UniProt Q8TDQ0, AF647); experiment: flow cytometry on cells
# [2] = molecular target: human TIM-3 on primary blood cells (Homo sapiens (Human)., UniProt Q8TDQ0); experiment: flow cytometry on cells
# [3] = molecular target: rhTIM-3-IgG1-Fc (human, UniProt Q8TDQ0); experiment: ELISA
# [4] = molecular target: biotinylated recombinant human TIM-3-Fc chimera (R&D Systems 2365-TM) (human, UniProt Q8TDQ0, biotin (EZ-Link Sulfo-NHS-LC-Biotinylation kit)); experiment: ELISA
binder,measurement,setting,value
B1,IC50,[1],4.44 ± 3.12 nM
same,EC50,[2],0.74 ± 0.57 nM
same,IC50,[3],0.353 ± 0.383 nM
same,IC50,[4],7.46 ± 0.052 nM
